Assay results reported in article PMC10499821 (Nature Communications, 2023).
Where no end group is shown, it is not given here. The star is where a group is joined. FITC = O=C1OC2(c3ccc(O)cc3Oc3cc(O)ccc32)c2ccc(NC(=S)*)cc21

B1: DYRK1B_(395–410) (peptide)
peptide: PGHSPADYLRFQDLVL
notes: also called DYRK1B peptide; DYRK1B_(394–409)

Key:
Nsp9 = Nsp9 (SARS-CoV-2, UniProt P0DTD1); assay: fluorescence polarisation; conditions: both partners purified
Nsp16 = Nsp16 (SARS-CoV-2, UniProt P0DTD1 6799-7096); assay: fluorescence polarisation; conditions: both partners purified

Binder	binding result (Nsp9)	Kd (Nsp16) [µM]	other results
AEGIDIGEMPSYDLVL (also called NKRF peptide) [NKRF_(8–23)]	binds		
FQGAWLGCPEPWEPLL (peptide, UniProt Q99466 1605-1620, looked up, also called NOTCH4 peptide) [NOTCH4_(1605–1620)]			Kd (Nsp9): ~130 µM
NQDMSAWFNLFADLDP (also called ICA1L peptide) [ICA1L_(450–465)]		30	
EDPLDSYLNFQALISP (also called FLJ43738 peptide) [FLJ43738_(76–91)]		62	
PAHPDGFALGRAPLA (also called LMTK3 peptide) [LMTK3_(22–36)]	binds		
{FITC}-AEGIDIGEMPSYDLVL [FITC-NKRF_(8–23)]	binds		
B1		56	
MNIQEQGFPLDLGAS (also called Axin-1 peptide) [AXIN1_(1–15)]	binds		
